In patent US20130030156A1 (Merck Sharp & Dohme, published 2013):

Target: T1, human ILT5 on the surface of human peripheral blood cells (human, UniProt O75022 24-631)
T1 construct: whole, on cells; Endogenous ILT5 on primary human cells; also called surface ILT5; hILT5
Assay: flow cytometry, TRX585 staining of human PBMCs
Text: The latter plots show the levels of two fluorescent parameters (i.e., fluorescent antibodies) on various cell subpopulations, quantitate the proportions of cells displaying these parameters, and indicate the frequency of cells present at each point in the plot. Here, peripheral blood mononuclear cells (PBMCs) from a healthy human donor were stained with the TRX585 antibody as well as antibodies specific for the indicated cell subset. In FIG. 1A, plots depict ILT5 (TRX585) expression by gated CD56⁻CD3⁺CD4⁺ or CD56⁻CD3⁺CD8⁺ T cells. In FIG. 1B, PBMCs were stained as in (A) and subsequently stained for intracellular Foxp3. Plots show ILT5 expression by gated CD56⁻CD3⁺CD4⁺Foxp3⁺ or CD56⁻ CD3⁺CD4⁺Foxp3⁻ T cells. […] Percentages of gated cells and mean fluorescence intensity of the ILT5-staining of ILT5⁺ cells are depicted inside and above plots, respectively. […]
Peripheral blood mononuclear cells (PBMCs) from healthy human blood donors were stained with a murine monoclonal antibody (TRX585) comprising a heavy chain variable region comprising the amino acid sequence of SEQ ID NO: 2 or SEQ ID NO: 3, and a light chain variable region comprising the amino acid sequence of SEQ ID NO: 1. […] PBMCs were also stained with antibodies specific for defined hematopoietic cell lineages and analyzed for ILT5 expression by flow cytometry.

T1 sequence (O75022 24-631): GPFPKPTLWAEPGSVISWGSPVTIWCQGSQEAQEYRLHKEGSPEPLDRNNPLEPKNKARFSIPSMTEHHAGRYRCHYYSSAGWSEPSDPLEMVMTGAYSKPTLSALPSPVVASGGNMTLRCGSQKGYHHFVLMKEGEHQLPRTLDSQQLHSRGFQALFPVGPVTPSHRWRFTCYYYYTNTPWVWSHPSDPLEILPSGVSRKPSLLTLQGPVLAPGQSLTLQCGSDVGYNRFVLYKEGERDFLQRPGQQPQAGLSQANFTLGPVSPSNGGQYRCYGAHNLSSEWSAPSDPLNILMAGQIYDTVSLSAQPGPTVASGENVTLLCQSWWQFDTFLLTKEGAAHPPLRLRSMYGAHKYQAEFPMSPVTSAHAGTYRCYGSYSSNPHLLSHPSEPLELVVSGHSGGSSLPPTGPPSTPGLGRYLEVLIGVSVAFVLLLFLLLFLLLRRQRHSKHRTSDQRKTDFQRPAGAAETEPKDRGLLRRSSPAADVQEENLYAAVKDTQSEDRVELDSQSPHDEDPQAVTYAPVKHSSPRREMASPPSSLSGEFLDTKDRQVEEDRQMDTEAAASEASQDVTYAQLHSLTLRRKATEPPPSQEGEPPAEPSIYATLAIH

binding result: binds
B1: TRX585 (8G6 mAb), mouse anti-human ILT5 monoclonal antibody (antibody, V domains shown)
VH: DVQLQESGPGLVKPSQSLFLTCSVTGYSISSSYYWNWIRQFPGNKLEWMGYISFDGSNNYNPSLKNRISITRDTSKNQFFLKLNSVTTEDTATYYCAREKENYYGSSFYYFDYWGLGTSLTVSS
VL: DIQMTQSPASLSVSVGETVTITCRASENIYSNLAWYQQKQGKSPQVLVYAATNLADGVPSRFSGSGSGTQFSLKINSLQSEDFGNYFCQHFWRIPWTFGGGTKLEIK
notes: Murine monoclonal antibody, IgG1, kappa, purified from hybridoma supernatant; also called TRX585 antibody; TRX585 mAb
